The values below come from the supplement of paper PMC7877785.

The data set can be described thus: self-splicing fitness, log relative to wild type (ln ratio); higher = more splicing; Tetrahymena group I intron in knt gene, E. coli kanamycin selection, DiMSum; sequences stand for … in CUCUCU…GGAGGGAAAAGUUAUCAGGCAUGCACCUGGUAGCUAGUCUUUAAACCAAUAGAUUGCAUCGGUUUAAAAGGCAAGACCGUCAAAUUGCGGGAAAGGGGUCAACAGCCGUUCAGUACCAAGUCUCAGGGGAAACUUUGAGAUGGCCUUGCAAAGGGUAUGGUAAUAAGCUGACGGACAUGGUCCUAACCACGCAGCCAAGUCCUAAGUCAACAGAUCUUCUGUUGAUAUGGAUGCAGUUCACAGACUAAAUGUCGGUCGGGGAAGAUGUAUUCUUCUCAUAAGAUAUAGUCGGACCUCUCCUUAAUGGGAGCUAGCGGAUGAAGUGAUGCAACACUGGAGCCGCUGGGAACUAAUUUGUAUGCGAAAGUAUAUUGAUUAGUUUUGGAGUACUCGUGGUCG
The method in brief:
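Fitness was computed with DiMSum as the error-weighted combination of replicate fold changes, kanamycin versus none, each normalised to wild type. The library randomised all eight intron nucleotides of the P1ex region, with the intron placed in the knt kanamycin-resistance gene on pET-22b(+) in E. coli BL21(DE3). Six replicate transformations were grown overnight at 37°C or 30°C on LB agar with or without 25 μg/mL kanamycin, plus 100 μg/mL carbenicillin, 50 μM IPTG and 0.2% rhamnose. Pooled colonies were amplicon-sequenced on an Illumina HiSeq 2500.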

± gives the uncertainty stated by the source.

In the case of CCAGAGCAAUAUUACGUGCU, the “self-splicing fitness (ln)” value (30 °C) is -3.37 ± 0.24 and the “self-splicing fitness (ln)” value (37 °C) was -3.56 ± 0.42.
For ACAUAGCAAUAUUACGCGUG the same measures were -2.8 ± 0.1 and -1.28 ± 0.12.
For UGAAAGCAAUAUUACGAAGA the same measures were -2.23 ± 0.3 and -0.283 ± 0.19.
In the case of ACACAGCAAUAUUACGAAGA, the “self-splicing fitness (ln)” value (30 °C) was -2.48 ± 0.1 and the “self-splicing fitness (ln)” value (37 °C) was -1.99 ± 0.12.
UUACAGCAAUAUUACGGUGU: the “self-splicing fitness (ln)” value by setting is: (30 °C) -4.36 ± 0.46; (37 °C) -2.23 ± 0.21.
For CGACAGCAAUAUUACGCUUA the same measures were -2.2 ± 0.14 and -1.78 ± 0.12.
For CAUUAGCAAUAUUACGGAGU the same measures were -3.87 ± 0.19 and -2.7 ± 0.2.
For UCCUAGCAAUAUUACGUAUA the same measures were -3.53 ± 0.28 and -2.03 ± 0.16.
ACGUAGCAAUAUUACGGUUU: the “self-splicing fitness (ln)” value was -2.03 ± 0.096 (30 °C) and -0.957 ± 0.11 (37 °C).
For AAUAAGCAAUAUUACGUGAC the same measures were -2.18 ± 0.2 and -2.76 ± 0.35.
For CCGGAGCAAUAUUACGUACG the same measures were -0.407 ± 0.14 and -0.609 ± 0.18.
For GAUUAGCAAUAUUACGACCG the same measures were -1.44 ± 0.14 and 0.0909 ± 0.18.
In the case of CGGUAGCAAUAUUACGUGAC, the “self-splicing fitness (ln)” value (37 °C) is -2.73 ± 0.41.
Consider AGCGAGCAAUAUUACGUUCG, for which the “self-splicing fitness (ln)” value runs as follows: (30 °C) -2.14 ± 0.37; (37 °C) -2.67 ± 0.38.
For GACCAGCAAUAUUACGUAAU the same measures were -0.385 ± 0.058 and -0.075 ± 0.07.
The like results for GUUUAGCAAUAUUACGAGCA were, in that order, -1.35 ± 0.25 and -0.983 ± 0.48.
As for UAUUAGCAAUAUUACGCUCA, the “self-splicing fitness (ln)” value is, setting by setting: (30 °C) 0.0548 ± 0.15; (37 °C) 0.336 ± 0.17.
With AGGAAGCAAUAUUACGGAUG, the “self-splicing fitness (ln)” value was -3.64 ± 0.2 (30 °C) and -2.37 ± 0.22 (37 °C).
With GUGAAGCAAUAUUACGAAAC, the “self-splicing fitness (ln)” value is, setting by setting: (30 °C) -1.66 ± 0.11; (37 °C) -0.943 ± 0.14.
Regarding AAACAGCAAUAUUACGACUG, the “self-splicing fitness (ln)” value is, setting by setting: (30 °C) -1.64 ± 0.064; (37 °C) -0.795 ± 0.071.
On to ACAAAGCAAUAUUACGACCA, for which the “self-splicing fitness (ln)” value (30 °C) is -0.633 ± 0.12 and the “self-splicing fitness (ln)” value (37 °C) is -0.407 ± 0.13.
For the sequence UAAGAGCAAUAUUACGCUGC, the “self-splicing fitness (ln)” value (37 °C) was -1.15 ± 0.37.
Regarding UCUCAGCAAUAUUACGUUGA, the “self-splicing fitness (ln)” value (30 °C) was -2.9 ± 0.2 and the “self-splicing fitness (ln)” value (37 °C) is -2.93 ± 0.24.
GAGGAGCAAUAUUACGGUGA: the “self-splicing fitness (ln)” value runs as follows: (30 °C) -3.55 ± 0.37; (37 °C) -1.49 ± 0.28.
The like results for GUGCAGCAAUAUUACGGCAG were, in that order, -2.71 ± 0.33 and -1.04 ± 0.25.
Take UAAUAGCAAUAUUACGAUUG: the “self-splicing fitness (ln)” value by setting is: (30 °C) 0.193 ± 0.068; (37 °C) 0.0133 ± 0.076.
Consider UAGUAGCAAUAUUACGAAAG, for which, for the setting “37 °C”, the “self-splicing fitness (ln)” value was -1.97 ± 0.26.
Regarding GAGGAGCAAUAUUACGUUCC, the “self-splicing fitness (ln)” value (37 °C) is -2.82 ± 0.48.
Take AAUGAGCAAUAUUACGGUUC: the “self-splicing fitness (ln)” value is, setting by setting: (30 °C) -2.91 ± 0.15; (37 °C) -2.48 ± 0.18.
The like results for GGAAAGCAAUAUUACGGGUC were, in that order, -3.66 ± 0.24 and -1.92 ± 0.14.
Turning to AUAUAGCAAUAUUACGCGUU, the “self-splicing fitness (ln)” value (30 °C) is -1.67 ± 0.2 and the “self-splicing fitness (ln)” value (37 °C) is -1.61 ± 0.24.
Turning to GGAAAGCAAUAUUACGCCGA, the “self-splicing fitness (ln)” value runs as follows: (30 °C) -0.608 ± 0.34; (37 °C) -0.354 ± 0.24.
Take ACUGAGCAAUAUUACGUGCA: the “self-splicing fitness (ln)” value was -2.8 ± 0.2 (30 °C) and -2.36 ± 0.25 (37 °C).
With UACGAGCAAUAUUACGAUUG, the “self-splicing fitness (ln)” value was -3.62 ± 0.25 (30 °C) and -0.584 ± 0.2 (37 °C).
Regarding GCACAGCAAUAUUACGGGCC, for the setting “37 °C”, the “self-splicing fitness (ln)” value was -1.7 ± 0.21.
As for GAAGAGCAAUAUUACGGUUG, the “self-splicing fitness (ln)” value by setting is: (30 °C) -3.86 ± 0.35; (37 °C) -2.18 ± 0.38.
For the sequence GGUCAGCAAUAUUACGACUA, the “self-splicing fitness (ln)” value runs as follows: (30 °C) 0.124 ± 0.092; (37 °C) 0.866 ± 0.13.
The like results for CAGCAGCAAUAUUACGCAUC were, in that order, -2.71 ± 0.12 and -1.16 ± 0.1.
For UGAUAGCAAUAUUACGCCUA the same measures were -0.439 ± 0.15 and -0.227 ± 0.16.
Take CUAUAGCAAUAUUACGCAUG: the “self-splicing fitness (ln)” value by setting is: (30 °C) -2.02 ± 0.093; (37 °C) -0.942 ± 0.095.
With AUGUAGCAAUAUUACGUACC, the “self-splicing fitness (ln)” value is -0.724 ± 0.19 (30 °C) and -1.14 ± 0.18 (37 °C).
As for UAGAAGCAAUAUUACGUGCG, the “self-splicing fitness (ln)” value is, setting by setting: (30 °C) -0.462 ± 0.082; (37 °C) -0.125 ± 0.098.
The like results for ACACAGCAAUAUUACGUAGA were, in that order, -3.64 ± 0.16 and -1.38 ± 0.11.
The like results for AGGCAGCAAUAUUACGAGAC were, in that order, -1.96 ± 0.13 and -2.65 ± 0.22.
The like results for UCCUAGCAAUAUUACGCCUG were, in that order, -2.87 ± 0.39 and -2.57 ± 0.46.
For the sequence ACACAGCAAUAUUACGUAAC, the “self-splicing fitness (ln)” value (30 °C) was -3.39 ± 0.12 and the “self-splicing fitness (ln)” value (37 °C) was -1.81 ± 0.14.
On to ACAGAGCAAUAUUACGGUCC, for which the “self-splicing fitness (ln)” value reads like this: (30 °C) -2.18 ± 0.14; (37 °C) -2.05 ± 0.39.
On to UAAUAGCAAUAUUACGAAGA, for which the “self-splicing fitness (ln)” value (37 °C) is -2.76 ± 0.31.
As to AUGAAGCAAUAUUACGUAAA, the “self-splicing fitness (ln)” value runs as follows: (30 °C) -1.99 ± 0.09; (37 °C) -1.27 ± 0.11.
The like results for GGAGAGCAAUAUUACGAUAC were, in that order, -2.61 ± 0.35 and -2.47 ± 0.31.
For AAGAAGCAAUAUUACGCAAU the same measures were -2.08 ± 0.18 and -1.52 ± 0.2.
Consider GCGGAGCAAUAUUACGAAUC, for which the “self-splicing fitness (ln)” value (30 °C) was -2.17 ± 0.44.
Consider CCGCAGCAAUAUUACGCAGC, for which the “self-splicing fitness (ln)” value runs as follows: (30 °C) -3.86 ± 0.28; (37 °C) -1.62 ± 0.19.
For UGGCAGCAAUAUUACGGUCU the same measures were -0.537 ± 0.066 and 0.29 ± 0.087.
Take UCCAAGCAAUAUUACGAAUU: the “self-splicing fitness (ln)” value runs as follows: (30 °C) -3.42 ± 0.14; (37 °C) -2.5 ± 0.16.
Consider GAGUAGCAAUAUUACGAAUG, for which the “self-splicing fitness (ln)” value was -3.18 ± 0.26 (30 °C) and -1.89 ± 0.22 (37 °C).
Regarding AGUUAGCAAUAUUACGAGUA, the “self-splicing fitness (ln)” value is -2.73 ± 0.17 (30 °C) and -1.64 ± 0.13 (37 °C).
In the case of CCUAAGCAAUAUUACGUGGA, the “self-splicing fitness (ln)” value (30 °C) is -2.73 ± 0.15 and the “self-splicing fitness (ln)” value (37 °C) was -2.55 ± 0.28.
For the sequence CAGUAGCAAUAUUACGAUGA, the “self-splicing fitness (ln)” value was -1.92 ± 0.24 (30 °C) and 0.175 ± 0.18 (37 °C).
For UGUCAGCAAUAUUACGAUCG the same measures were 0.238 ± 0.098 and 0.647 ± 0.12.
For the sequence CAUCAGCAAUAUUACGAGUA, the “self-splicing fitness (ln)” value is -2.12 ± 0.12 (30 °C) and -1.47 ± 0.095 (37 °C).
Consider GUCGAGCAAUAUUACGGGCG, for which the “self-splicing fitness (ln)” value is -2.88 ± 0.11 (30 °C) and -1.36 ± 0.12 (37 °C).
Consider GAUCAGCAAUAUUACGUCCG, for which the “self-splicing fitness (ln)” value (30 °C) was -3.26 ± 0.26 and the “self-splicing fitness (ln)” value (37 °C) is -1.66 ± 0.22.
For UUCAAGCAAUAUUACGACCU the same measures were -2.33 ± 0.27 and -0.916 ± 0.18.
Consider CCCGAGCAAUAUUACGUAGC, for which the “self-splicing fitness (ln)” value (30 °C) is -3.06 ± 0.24 and the “self-splicing fitness (ln)” value (37 °C) was -2.49 ± 0.33.
For UCGAAGCAAUAUUACGCCCG the same measures were -1.33 ± 0.16 and -0.864 ± 0.17.
For ACAGAGCAAUAUUACGACUG, the “self-splicing fitness (ln)” value is -1.05 ± 0.11 (30 °C) and -1.54 ± 0.15 (37 °C).
The like results for UGUAAGCAAUAUUACGAAAU were, in that order, -2.47 ± 0.18 and -0.0192 ± 0.17.
For AGCCAGCAAUAUUACGCGGU the same measures were -2.93 ± 0.28 and -2.29 ± 0.33.
The like results for UAAAAGCAAUAUUACGAACC were, in that order, -3.12 ± 0.36 and -1.25 ± 0.45.
On to CACCAGCAAUAUUACGGUCC, for which the “self-splicing fitness (ln)” value is -0.606 ± 0.074 (30 °C) and -0.037 ± 0.11 (37 °C).
On to UGUAAGCAAUAUUACGCACG, for which the “self-splicing fitness (ln)” value (30 °C) was -0.966 ± 0.092 and the “self-splicing fitness (ln)” value (37 °C) is -0.234 ± 0.11.
The like results for AACAAGCAAUAUUACGUAGC were, in that order, -3.1 ± 0.09 and -2.07 ± 0.1.
The like results for GGUAAGCAAUAUUACGGGUG were, in that order, -3.24 ± 0.12 and -1.85 ± 0.088.
On to AUUGAGCAAUAUUACGGAGA, for which the “self-splicing fitness (ln)” value (37 °C) is -1.85 ± 0.47.
For the sequence UGUCAGCAAUAUUACGAUGU, the “self-splicing fitness (ln)” value reads like this: (30 °C) -1.36 ± 0.073; (37 °C) -0.317 ± 0.093.
As to GGGAAGCAAUAUUACGGACG, the “self-splicing fitness (ln)” value was -0.846 ± 0.11 (30 °C) and -0.443 ± 0.13 (37 °C).
